The target of test [1] is T1, Human GUCY2C ECD Cleaved (human, UniProt P25092 24-430).
T1 construct: also called human GUCY2c extracellular domain protein (ECD)
In words: SPR, human IgG1 against human GUCY2c ECD.

Test [2] deals with T1, Human GUCY2C ECD Cleaved. In words: SPR, human IgG1. For orientation: SPR reads the build-up and loss of mass on a sensor chip optically.
In the next test the target is T2, GUCY2C_ECD Peptide 19 (human).
T2 construct: also called GUCY2c peptide 19; GUCY2c-ECD peptide number 19
T2 peptide: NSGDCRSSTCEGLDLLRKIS
In words: co-crystal structure, 1.6 A.

Test [3] addresses T1, Human GUCY2C ECD Cleaved. The test can be described thus: DELFIA ELISA on coated human GUCY2c.
The target in test [4] is T3, Cynomolgus GUCY2C-ECD Cleaved (cynomolgus, UniProt P25092 24-430 (human entry)).
T3 construct: also called CyGUCY2C
T3 chain: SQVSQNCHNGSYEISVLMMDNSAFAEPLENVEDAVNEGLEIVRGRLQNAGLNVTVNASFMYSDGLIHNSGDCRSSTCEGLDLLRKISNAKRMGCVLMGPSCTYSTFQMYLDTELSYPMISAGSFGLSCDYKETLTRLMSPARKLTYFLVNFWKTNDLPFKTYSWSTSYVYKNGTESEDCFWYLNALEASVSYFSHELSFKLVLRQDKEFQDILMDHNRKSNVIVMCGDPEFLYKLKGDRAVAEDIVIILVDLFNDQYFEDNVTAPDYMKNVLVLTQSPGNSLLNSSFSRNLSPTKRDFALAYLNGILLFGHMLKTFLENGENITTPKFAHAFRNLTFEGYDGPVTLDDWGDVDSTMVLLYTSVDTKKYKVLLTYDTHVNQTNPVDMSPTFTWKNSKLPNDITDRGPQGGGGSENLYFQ
The test can be described thus: direct DELFIA, RT.

Test [5] has as its target T1, Human GUCY2C ECD Cleaved. In words: direct DELFIA, RT.
Test [6] addresses T4, Human GUCY2C full length (SEQ ID NO: 224), recombinant protein (human, UniProt P25092 24-430, limits assumed).
T4 construct: also called huGUCY2C; biotinylated human GUCY2c
The test can be described thus: SPR, anti-human IgG capture, 25 C.

The target in test [7] is T5, Human GUCY2c on tumor cells (T84, HT55) (human, UniProt P25092 24-1073). In words: cell-based or functional assay.
In test [8] the target is T5, Human GUCY2c on tumor cells (T84, HT55). The test can be described thus: cell-based or functional assay. The source holds these as a separate data set.
The target of test [9] is T3, Cynomolgus GUCY2C-ECD Cleaved. In words: direct DELFIA, 60 C.
The target in test [10] is T1, Human GUCY2C ECD Cleaved. The test can be described thus: direct DELFIA, 60 C.
The next test deals with T6, Human CD3 epsilon-delta (human).
T6 construct: Single-chain epsilon-linker-delta with His6; also called huCD3
T6 chain: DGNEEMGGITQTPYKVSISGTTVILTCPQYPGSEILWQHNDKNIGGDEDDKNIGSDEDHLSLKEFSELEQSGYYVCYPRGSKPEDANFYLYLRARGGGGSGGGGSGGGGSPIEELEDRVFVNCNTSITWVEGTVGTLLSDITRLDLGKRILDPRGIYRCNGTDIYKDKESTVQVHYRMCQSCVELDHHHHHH
In words: SPR, CD3 captured by anti-His, 25 C.

Test [11] concerns the target T7, Murine GUCY2C full length on 300.19 cells (mouse, UniProt Q3UWA6 20-1072).
T7 construct: also called mouse GUCY2c
In words: IHC on cell pellets.

Test [12] addresses T8, Cynomolgus GUCY2C full length on 300.19 cells (cynomolgus, UniProt P25092 24-1073 (human entry)).
T8 construct: also called cyno GUCY2c
T8 chain: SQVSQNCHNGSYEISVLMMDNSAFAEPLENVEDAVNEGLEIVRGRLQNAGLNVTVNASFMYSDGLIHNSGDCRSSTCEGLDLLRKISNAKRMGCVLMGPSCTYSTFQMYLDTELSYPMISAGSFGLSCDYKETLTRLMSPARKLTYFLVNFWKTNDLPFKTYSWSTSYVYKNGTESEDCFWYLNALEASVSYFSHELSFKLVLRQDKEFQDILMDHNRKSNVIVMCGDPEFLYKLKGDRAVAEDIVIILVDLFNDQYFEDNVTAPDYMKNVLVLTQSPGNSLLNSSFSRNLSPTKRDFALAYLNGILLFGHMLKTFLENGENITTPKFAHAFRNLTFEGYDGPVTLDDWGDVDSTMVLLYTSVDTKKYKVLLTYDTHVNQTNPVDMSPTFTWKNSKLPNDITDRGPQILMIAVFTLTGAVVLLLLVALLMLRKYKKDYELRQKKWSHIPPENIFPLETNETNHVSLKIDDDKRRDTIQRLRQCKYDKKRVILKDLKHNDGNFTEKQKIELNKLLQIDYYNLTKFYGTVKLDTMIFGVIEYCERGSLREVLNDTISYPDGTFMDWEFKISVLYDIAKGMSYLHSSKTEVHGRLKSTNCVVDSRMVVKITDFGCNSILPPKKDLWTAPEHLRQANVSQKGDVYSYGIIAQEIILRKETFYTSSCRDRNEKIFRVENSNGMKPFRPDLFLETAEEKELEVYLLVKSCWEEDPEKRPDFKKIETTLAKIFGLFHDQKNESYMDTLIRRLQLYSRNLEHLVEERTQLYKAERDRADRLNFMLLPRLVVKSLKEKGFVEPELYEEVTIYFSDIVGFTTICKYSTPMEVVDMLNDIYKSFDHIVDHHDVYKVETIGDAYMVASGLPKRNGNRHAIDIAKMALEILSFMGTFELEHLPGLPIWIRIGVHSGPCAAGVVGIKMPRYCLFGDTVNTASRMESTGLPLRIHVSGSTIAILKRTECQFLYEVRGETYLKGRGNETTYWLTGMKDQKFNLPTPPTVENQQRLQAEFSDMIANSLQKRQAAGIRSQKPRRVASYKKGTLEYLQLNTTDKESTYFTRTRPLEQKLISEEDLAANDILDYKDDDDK
The test can be described thus: IHC on cell pellets.

Read-outs that look alike come from different tables or passages of the source.

One may read the Kd as the constant that tells how readily two partners part at equilibrium. As a reminder, the koff is the rate constant with which the complex falls apart. Usually kon stands for the rate constant with which the complex forms. The term EC50 denotes the concentration giving half of the maximal effect. Low values mean an effect from little substance, high ones a need for much substance.

T1 sequence (P25092 other isoform, or with tags, fused parts or gaps): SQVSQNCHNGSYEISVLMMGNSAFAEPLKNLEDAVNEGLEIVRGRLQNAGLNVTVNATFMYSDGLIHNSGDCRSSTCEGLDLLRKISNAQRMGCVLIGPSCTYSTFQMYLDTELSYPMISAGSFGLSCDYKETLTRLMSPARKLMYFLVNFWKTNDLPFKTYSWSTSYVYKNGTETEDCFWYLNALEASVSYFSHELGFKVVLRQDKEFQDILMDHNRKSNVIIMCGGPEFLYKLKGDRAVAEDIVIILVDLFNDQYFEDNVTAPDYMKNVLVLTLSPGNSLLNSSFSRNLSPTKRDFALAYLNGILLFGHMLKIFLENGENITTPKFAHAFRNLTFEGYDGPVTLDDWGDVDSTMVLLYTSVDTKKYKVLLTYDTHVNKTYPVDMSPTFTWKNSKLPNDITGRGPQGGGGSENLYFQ
T4 sequence (P25092 24-430 F281L limits assumed): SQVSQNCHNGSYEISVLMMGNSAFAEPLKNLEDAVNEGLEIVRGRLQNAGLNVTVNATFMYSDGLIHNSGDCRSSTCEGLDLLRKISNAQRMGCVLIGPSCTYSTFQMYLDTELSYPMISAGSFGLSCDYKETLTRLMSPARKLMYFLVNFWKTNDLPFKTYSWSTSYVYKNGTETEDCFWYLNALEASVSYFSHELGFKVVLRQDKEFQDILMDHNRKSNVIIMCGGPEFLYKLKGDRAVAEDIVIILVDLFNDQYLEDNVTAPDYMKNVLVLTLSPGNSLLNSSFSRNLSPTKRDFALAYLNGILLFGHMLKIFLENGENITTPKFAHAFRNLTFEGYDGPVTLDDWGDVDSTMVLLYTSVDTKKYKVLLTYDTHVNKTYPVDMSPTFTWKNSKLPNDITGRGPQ
T5 sequence (P25092 24-1073 limits assumed): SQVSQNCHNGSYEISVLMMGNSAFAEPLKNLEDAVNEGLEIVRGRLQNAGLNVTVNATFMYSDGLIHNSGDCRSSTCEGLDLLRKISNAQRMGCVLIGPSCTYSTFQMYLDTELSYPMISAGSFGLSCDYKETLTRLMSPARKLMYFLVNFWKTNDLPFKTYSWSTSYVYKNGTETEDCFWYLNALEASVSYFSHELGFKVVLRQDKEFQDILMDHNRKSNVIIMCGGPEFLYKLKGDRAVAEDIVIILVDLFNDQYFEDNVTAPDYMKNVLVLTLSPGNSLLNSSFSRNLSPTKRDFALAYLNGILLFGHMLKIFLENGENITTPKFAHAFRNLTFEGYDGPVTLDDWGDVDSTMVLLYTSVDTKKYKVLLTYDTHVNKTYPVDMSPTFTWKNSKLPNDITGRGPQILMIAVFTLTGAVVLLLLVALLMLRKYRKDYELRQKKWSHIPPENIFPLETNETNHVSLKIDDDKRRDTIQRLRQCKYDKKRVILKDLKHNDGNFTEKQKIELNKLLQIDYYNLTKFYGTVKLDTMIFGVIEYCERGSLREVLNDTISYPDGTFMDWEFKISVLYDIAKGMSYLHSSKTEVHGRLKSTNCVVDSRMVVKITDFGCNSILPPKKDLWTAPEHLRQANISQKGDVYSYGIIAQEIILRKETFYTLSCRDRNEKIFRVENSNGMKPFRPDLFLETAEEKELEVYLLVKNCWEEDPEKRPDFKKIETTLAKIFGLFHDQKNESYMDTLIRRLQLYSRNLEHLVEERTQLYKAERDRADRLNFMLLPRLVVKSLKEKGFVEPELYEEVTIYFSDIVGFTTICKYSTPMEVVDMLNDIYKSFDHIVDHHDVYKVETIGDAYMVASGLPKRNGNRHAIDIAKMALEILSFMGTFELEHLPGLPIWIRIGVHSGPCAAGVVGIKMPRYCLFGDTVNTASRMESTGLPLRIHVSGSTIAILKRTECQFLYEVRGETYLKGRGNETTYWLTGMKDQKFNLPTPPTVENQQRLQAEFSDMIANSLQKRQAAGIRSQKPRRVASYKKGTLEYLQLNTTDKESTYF

B1: GUCY2C-1715 (antibody, human IgG1, V domains shown)
VH: EVQLVESGGGLVQPGGSLRLSCAASGFTFSSYWMHWVRQAPGKGLEWIGEIKPSTKYTNVHEKFKDRFTISVDKAKNSAYLQMNSLRAEDTAVYYCTRTIFTNEGYWFFDVWGQGTLVTVSS
VL: DIQLTQSPSSLSASVGDRVTITCRASESVSIYGSSLMQWYQQKPGKAPKLLIYAASKLASGVPSRFSGSGSGTDFTLTISSLQPEDFATYYCQQTRKAYTFGQGTKLEIK
notes: full human IgG1/kappa
On to B1, for which, in the test with Human GUCY2C ECD Cleaved [1], binding was characterised by a dissociation constant (Kd) of 4.07 nM, the koff was determined as 0.0011 s⁻¹ and the kon was 272000 M⁻¹ s⁻¹. Also, the “fold improvement of affinity against the parent antibody (GUCY2C-1640)” value with Human GUCY2C ECD Cleaved [2] is 3.4 fold.

B2: GUCY2C-1608 scFv (scFv)
scFv: EVQLVESGGGLVQPGGSLRLSCAASGFTFSSYWMHWVRQAPGKGLEWIGEIKPSNELTNVHEKFKDRFTISVDKAKNSAYLQMNSLRAEDTAVYYCTRTITTTEGYWFFDVWGQGTLVTVSSGGGGSGGGGSGGGGSGDIQLTQSPSSLSASVGDRVTITCRASESVDYYGSSLLQWYQQKPGKAPKLLIYAASKLASGVPSRFSGSGSGTDFTLTISSLQPEDFATYYCQQTRKAYTFGQGTKLEIKTGSENLYFQ
Turning to B2, the binding result with GUCY2C_ECD Peptide 19 is “binds”.

B3: GUCY2C-0118, rabbit chimeric IgG version of GUCY2C-0098 (antibody)
heavy: QVQLQQPGAELVKPGASVKLSCKASGYTFTSYWMHWVKQRPGQGLEWIGEIKPSNGLTNYIEKFKNKATLTVDKSATTAYMQLSSLTAEDSAVYYCTRTITTTEGYWFFDVWGAGTTVTVSSGQPKAPSVFPLAPCCGDTPSSTVTLGCLVKGYLPEPVTVTWNSGTLTNGVRTFPSVRQSSGLYSLSSVVSVTSSSQPVTCNVAHPATNTKVDKTVAPSTCSKPTCPPPELLGGPSVFIFPPKPKDTLMISRTPEVTCVVVDVSQDDPEVQFTWYINNEQVRTARPPLREQQFNSTIRVVSTLPIAHQDWLRGKEFKCKVHNKALPAPIEKTISKARGQPLEPKVYTMGPPREELSSRSVSLTCMINGFYPSDISVEWEKNGKAEDNYKTTPAVLDSDGSYFLYSKLSVPTSEWQRGDVFTCSVMHEALHNHYTQKSISRSPGK
light: DIVLTQSPASLAVSLGQRATISCRASESVDYYGTSLMQWYQQKPGQPPKLLIYAASNVESGVPARFSGSGSGTDFSLNIHPVEEDDIAMYFCQQTRKVYTFGGGTKLEIKGDPVAPTVLIFPPAADQVATGTVTIVCVANKYFPDVTVTWEVDGTTQTTGIENSKTPQNSADCTYNLSSTLTLTSTQYNSHKEYTCRVTQGTTSVVQSFNRGDC
notes: also called Rabbit IgG version of clone 9H3
B3 came in with a half-maximal effective concentration (EC50) in the test with Human GUCY2C ECD Cleaved [3] of 0.25 µg/mL.

B4: GUCY2C-1478 (bispecific antibody)
chain 1: DIQLTQSPSSLSASVGDRVTITCRASESVDYYGSSLLQWYQQKPGKAPKLLIYAASKLASGVPSRFSGSGSGTDFTLTISSLQPEDFATYYCQQTRKAYTFGQGTKLEIKGGGSGGGGEVQLVESGGGLVQPGGSLRLSCAASGFTFSDYYMTWVRQAPGKGLEWVAFIRNQARGYTSDHNPSVKGRFTISRDNAKNSLYLQMNSLRAEDTAVYYCARDRPSYYVLDYWGQGTTVTVSSGCPPCPAPEAAGAPSVFLFPPKPKDTLMISRTPEVTCVVVDVSHEDPEVKFNWYVDGVEVHNAKTKPREEQYNSTYRVVSVLTVLHQDWLNGKEYKCKVSNKALPAPIEKTISKAKGQPREPQVCTLPPSREEMTKNQVSLWCLVKGFYPSDIAVEWESNGQPENNYKTTPPVLDSDGSFFLYSKLTVDKSRWQQGNVFSCSVMHEALHNHYTQKSLSLSPG
chain 2: DIQMTQSPSSLSASVGDRVTITCTSSQSLFNVRSQKNYLAWYQQKPGKAPKLLIYWASTRESGVPSRFSGSGSGTDFTLTISSLQPEDFATYYCKQSYDLFTFGGGTKVEIKGGGGSGGGGEVQLVESGGGLVQPGGSLRLSCAASGYTFTSYWMHWVRQAPGKGLEWIGEIKPSNGLTNVHEKFKNRFTISVDKAKNSAYLQMNSLRAEDTAVYYCTRTITTTEGYWFFDVWGQGTLVTVSSGCPPCPAPEAAGAPSVFLFPPKPKDTLMISRTPEVTCVVVDVSHEDPEVKFNWYVDGVEVHNAKTKPREEQYNSTYRVVSVLTVLHQDWLNGKEYKCKVSNKALPAPIEKTISKAKGQPREPQVYTLPPCREEMTKNQVSLSCAVKGFYPSDIAVEWESNGQPENNYKTTPPVLDSDGSFFLVSKLTVDKSRWQQGNVFSCSVMHEALHNHYTQKSLSLSPG
notes: CD3-0006
As for B4, the 50% effective concentration (EC50) was determined as 4.9 nM in [4], 4.39 nM with Human GUCY2C ECD Cleaved [5], 15.7 nM in [9] and 19.2 nM with Human GUCY2C ECD Cleaved [10]. In addition, the equilibrium dissociation constant (Kd) was 3.69 nM in test [6] and 26.9 nM in the test with Human CD3 epsilon-delta. The dissociation rate constant (koff) in [6] worked out at 0.000434 s⁻¹; in the test with Human CD3 epsilon-delta, 0.00956 s⁻¹. Moreover, the on-rate constant (kon) was determined as 118000 M⁻¹ s⁻¹ in test [6] and 355000 M⁻¹ s⁻¹ with Human CD3 epsilon-delta. The “T84 tumor cell EC50 (T cell cytotoxicity, E:T 5:1)” value in test [7] and in [8] was 0.24 nM throughout.

B5: 9H3 (antibody)
heavy: QVQLQQPGAELVKPGASVKLSCKASGYTFTSYWMHWVKQRPGQGLEWIGEIKPSNGLTNYIEKFKNKATLTVDKSATTAYMQLSSLTAEDSAVYYCTRTITTTEGYWFFDVWGAGTTVTVSSAKTTPPSVYPLAPGSAAQTNSMVTLGCLVKGYFPEPVTVTWNSGSLSSGVHTFPAVLQSDLYTLSSSVTVPSSTWPSETVTCNVAHPASSTKVDKKIVPRDCGCKPCICTVPEVSSVFIFPPKPKDVLTITLTPKVTCVVVDISKDDPEVQFSWFVDDVEVHTAQTQPREEQFNSTFRSVSELPIMHQDWLNGKEFKCRVNSAAFPAPIEKTISKTKGRPKAPQVYTIPPPKEQMAKDKVSLTCMITDFFPEDITVEWQWNGQPAENYKNTQPIMDTDGSYFVYSKLNVQKSNWEAGNTFTCSVLHEGLHNHHTEKSLSHSPGK
light: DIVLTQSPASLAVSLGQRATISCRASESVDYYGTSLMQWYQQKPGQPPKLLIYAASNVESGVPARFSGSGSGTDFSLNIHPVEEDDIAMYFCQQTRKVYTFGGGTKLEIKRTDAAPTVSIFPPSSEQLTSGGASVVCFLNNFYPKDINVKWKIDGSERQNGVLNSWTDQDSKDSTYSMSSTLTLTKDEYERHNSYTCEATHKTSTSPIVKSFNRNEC
notes: Tested as hybridoma antibody; also called GUCY2C-9H3
On to B5, for which the binding result in test [11] and in test [12] was “binds” in each case.

Values taken from US20230340151A1 (Pfizer, published 2023).
